Literature values, collected in patent US5972698A, “Tryptase inhibitor” (Novartis Corporation, priority 1993, dated 1999).

Tested on: Human tryptase

inhibition of tryptase (literature) | Molecule
not affected | soybean trypsin inhibitor: printed as 'soybean and lima bean trypsin inhibitor' (protein, UniProt P01070 25-205, looked up) Trypsin inhibitor A: DFVLDNEGNPLENGGTYYILSDITAFGGIRAAPTGNERCPLTVVQSRNELDKGIGTIISSPYRIRFIAEGHPLSLKFDSFAVIMLCVGIPTEWSVVEDLPEGPAVKIGENKDAMDGWFRLERVSDDEFNNYKLVFCPQQAEDDKCGDIGISIDHDDGTRRLVVSKNKPLVVQFQKLDKESL
not affected | ovomucoid inhibitor: proteinase inhibitor derived from non-human species (protein, UniProt P01005 25-210, looked up) Ovomucoid: AEVDCSRFPNATDKEGKDVLVCNKDLRPICGTDGVTYTNDCLLCAYSIEFGTNISKEHDGECKETVPMNCSSYANTTSEDGKVMVLCNRAFNPVCGTDGVTYDNECLLCAHKVEQGASVDKRHDGGCRKELAAVSVDCSEYPKPDCTAEDRPLCGSDNKTYGNKCNFCNAVVESNGTLTLSHFGKC
not inhibited | mucus-proteinaseinhibitor: naturally occurring antiproteinase (protein, UniProt P03973 26-132, looked up) Antileukoproteinase: SGKSFKAGVCPPKKSAQCLRYKKPECQSDWQCPGKKRCCPDTCGIKCLDPVDTPNPTRRKPGKCPVTYGQCLMLNPPNFCEMDGQCKRDLKCCMGMCGKSCVSPVKA
